Source: patent US9944688B2, “Non-peptidyl polymer-insulin multimer and method for producing the same” (HANMI SCIENCE CO., LTD., priority 2011, dated 2018)

Experiments:
[1] = Comparison of molecular size by size exclusion chromatography in DPBS; format: physicochemical; details: SEC, DPBS buffer
Protocol: Size exclusion chromatography was performed to indirectly predict the molecular size of subcutaneously injected insulin formulation and its size change according to natural dilution (Havelund et al., 2004). The representative commercial long-acting insulin formulations, Levemir and Lantus, were used as a control group to examine the relative molecular size of the cobalt PEG-insulin hexamer. Chromatography was performed according to the conditions described in Example 4, except that DPBS was used as a buffer solution to create subcutaneous environment.

[2] = Measurement of hydrodynamic volume by size exclusion chromatography; format: physicochemical; details: for Hydrodynamic volume: SEC Superdex 200 10/300 GL, regression line from standard proteins; for Hydrodynamic volume, times larger than monomer: hexamer versus monomer
Protocol: PEG-insulin conjugates in 20 mM HEPES buffer (pH 8.2) were mixed with a cobalt chloride solution to a ratio of cobalt to hexamer of 3:1. To convert divalent cobalt ions into trivalent cobalt ions, hydrogen peroxide corresponding to twice of the total divalent cobalt ions was added, and left at room temperature for 2 h. Thereafter, cobalt PEG-insulin hexamers were isolated by SEC (size exclusion chromatography).
Column: Superdex 200 16/60 prep grade (GE Healthcare)
Buffer: 20 mM HEPES pH 8.2+0.2 M NaCl
Hydrodynamic volume of the PEG-insulin conjugate or the cobalt PEG-insulin hexamer was measured according to the conditions described in Example 4, except that Superdex 200 10/300 GL was used as a column. The regression line was calculated from the elution volume of standard protein. Partition coefficient (Kav) is defined as follows. Kav=(Ve−V0)/(Vt−V0)
Ve represents the elution volume, V0 represents the void volume determined by Blue dextran, and Vt represents the bed volume.

[3] = tested on: murine fibroblast 3T3-L1 differentiated into adipocyte; experiment: In vitro efficacy test: residual sugar in media of differentiated 3T3-L1 adipocytes; format: cell-based; details: for EC50: differentiated 3T3-L1 adipocytes, 37° C. for 24 h, residual sugar by D-Glucose assay kit
Protocol: In order to differentiate murine fibroblast 3T3-L1 into adipocyte, the cell was inoculated in a 48-well plate containing a 10% FBS/DMEM media containing dexamethasone, IBMX, and insulin at a cell density of 1.0×10^5 per well. The differentiated cells were washed with DPBS three times, and cultured in a serum-free DMEM for 4 h. […] After cultivation at 37° C. for 24 h, the residual sugar concentration in the media was measured using a D-Glucose assay kit (Megazyme), and EC50 values were calculated and shown in Table 1.

[4] = after subcutaneous injection; time for half of the drug to pass the capillary wall; cited from earlier work

## Cobalt PEG (5k)-insulin hexamer: hexamer of PEG (5k)-insulin conjugates complexed with trivalent cobalt ions
[1]
  Dissociation coefficient (Kav): 0.20
  Elution time: 27.63 min
[2]
  Hydrodynamic volume: 300 kDa
  Hydrodynamic volume, times larger than monomer: approximately 5 times

## Cobalt PEG (20k)-insulin hexamer: hexamer of PEG (20k)-insulin conjugates complexed with trivalent cobalt ions
[1]
  Dissociation coefficient (Kav): 0.01
  Elution time: 20.12 min
[2]
  Hydrodynamic volume: 1,600 kDa
  Hydrodynamic volume, times larger than monomer: approximately 10 times

## PEG (5k)-insulin: human native insulin mono-PEGylated with 5 k mPEG-aldehyde at the amino terminus of the B chain
[3]
  EC50: 0.00948 ± 0.00277 µM
[3]; relative to human native insulin (100)
  Relative activity: 60%
[2]
  Hydrodynamic volume: 60 kDa

## PEG (20k)-insulin: human native insulin mono-PEGylated with 20 k mPEG-aldehyde at the amino terminus of the B chain
[3]
  EC50: 0.0136 ± 0.00071 µM

## insulin detemir
[4]
  Subcutaneous half-life, times longer than native insulin hexamer: 4 times
